According to patent US20210246166A1 (Bayer, published 2021):
Bridge positions count the residues as written; N and C are the ends. Square brackets hold non-standard residues; d marks the D form. Ends that are not written are not given here. (S)‑3‑(2H-tetrazol-5-yl)propanoic acid = (S)-3-(2H-tetrazol-5-yl)propanoic acid; Pro(4-spirocPr) = O=C(O)[C@@H]1CC2(CC2)CN1; Oic = O=C(O)[C@@H]1C[C@@H]2CCCC[C@@H]2N1; tBuAla = CC(C)(C)C[C@H](N)C(=O)O; Pen = CC(C)(S)[C@H](N)C(=O)O; NMeC = CN[C@@H](CS)C(=O)O; NMeA = CN[C@@H](C)C(=O)O; Nle = CCCC[C@H](N)C(=O)O; PEG2 = NCCOCCOCCC(=O)O; Sar = CNCC(=O)O

T1: recombinant human MASP1 active protease (amino acids 297-699, C-terminal His Tag) (human, UniProt P48740 297-699)
T1 sequence: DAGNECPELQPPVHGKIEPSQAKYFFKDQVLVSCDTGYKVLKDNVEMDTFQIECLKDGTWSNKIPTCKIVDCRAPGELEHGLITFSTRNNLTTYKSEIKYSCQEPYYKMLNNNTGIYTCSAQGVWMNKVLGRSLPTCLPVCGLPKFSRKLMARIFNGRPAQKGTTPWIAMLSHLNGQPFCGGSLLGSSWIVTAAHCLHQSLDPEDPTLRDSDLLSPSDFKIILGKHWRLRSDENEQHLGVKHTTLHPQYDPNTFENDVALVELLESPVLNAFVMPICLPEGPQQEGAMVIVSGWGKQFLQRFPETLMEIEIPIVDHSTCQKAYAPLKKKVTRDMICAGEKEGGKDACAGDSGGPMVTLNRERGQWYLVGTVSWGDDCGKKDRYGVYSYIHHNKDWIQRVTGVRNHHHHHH


Tests used:
[1] = molecular target: recombinant human MASP2 active protease (amino acids 297-686, C-terminal His Tag) (human, UniProt O00187 297-686); experiment: cell-based or functional assay
recombinant human MASP2 active protease (amino acids 297-686, C-terminal His Tag), sequence (O00187 other isoform, or with tags, fused parts or gaps limits assumed): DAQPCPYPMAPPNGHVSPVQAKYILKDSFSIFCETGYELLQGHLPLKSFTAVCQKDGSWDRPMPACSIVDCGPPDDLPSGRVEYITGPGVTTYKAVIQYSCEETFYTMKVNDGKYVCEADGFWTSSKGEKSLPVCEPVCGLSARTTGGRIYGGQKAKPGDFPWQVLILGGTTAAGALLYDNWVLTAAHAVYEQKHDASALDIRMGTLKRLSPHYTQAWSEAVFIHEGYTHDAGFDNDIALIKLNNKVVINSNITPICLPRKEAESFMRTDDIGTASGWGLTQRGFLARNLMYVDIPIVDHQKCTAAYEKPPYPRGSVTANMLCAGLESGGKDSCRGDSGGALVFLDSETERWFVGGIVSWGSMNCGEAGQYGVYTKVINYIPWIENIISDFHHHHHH

[2] = molecular target: T1, recombinant human MASP1 active protease …; experiment: cell-based or functional assay

| Binder | human MASP2 IC50 [1] | human MASP1 IC50 [2] |
| --- | --- | --- |
| AICSRS[tBuAla]PPICI-NH2 (disulfide 3-11; N-terminus assumed; SMILES CC[C@H](C)[C@H](NC(=O)[C@@H]1CSSC[C@H](NC(=O)[C@@H](NC(=O)[C@H](C)N)[C@@H](C)CC)C(=O)N[C@@H](CO)C(=O)N[C@@H](CCCNC(=N)N)C(=O)N[C@@H](CO)C(=O)N[C@@H](CC(C)(C)C)C(=O)N2CCC[C@H]2C(=O)N2CCC[C@H]2C(=O)N[C@@H]([C@@H](C)CC)C(=O)N1)C(N)=O) [AIC+SRS-((tBu)A)-PPIC+I-NH2] | 120 nM | 1.7 nM |
| [Sar]ICSRS[tBuAla]PPI[Pen]IP[PEG2]-NH2 (disulfide 3-11; also: HCl salt) [((N-Me)G)-IC+SRS-((tBu)A)-PPI-(Pen)+IP-(PEG1(10 atoms))-NH2 (HCl salt)] | 31 nM | 1.7 nM |
| AICSRS[tBuAla]PPI[NMeC]IPD-NH2 (disulfide 3-11; also: HCl salt) [AIC+SRS-((tBu)A)-PPI-((N-Me)C)+IPD-NH2 (HCl salt)] | 140 nM | 1.53 nM |
| [NMeA]ICSRS[tBuAla]PPI[Pen]IPD-NH2 (disulfide 3-11; N-terminus assumed; SMILES CC[C@H](C)[C@H](NC(=O)[C@H](C)NC)C(=O)N[C@H]1CSSC(C)(C)[C@@H](C(=O)N[C@H](C(=O)N2CCC[C@H]2C(=O)N[C@@H](CC(=O)O)C(N)=O)[C@@H](C)CC)NC(=O)[C@H]([C@@H](C)CC)NC(=O)[C@@H]2CCCN2C(=O)[C@@H]2CCCN2C(=O)[C@H](CC(C)(C)C)NC(=O)[C@H](CO)NC(=O)[C@H](CCCNC(=N)N)NC(=O)[C@H](CO)NC1=O) [((N-Me)A)-IC+SRS-((tBu)A)-PPI-(Pen)+IPD-NH2] | 98 nM | 1.43 nM |
| AICSRS[tBuAla]PPI[NMeC]I-NH2 (disulfide 3-11; N-terminus assumed; SMILES CC[C@H](C)[C@H](NC(=O)[C@@H]1CSSC[C@H](NC(=O)[C@@H](NC(=O)[C@H](C)N)[C@@H](C)CC)C(=O)N[C@@H](CO)C(=O)N[C@@H](CCCNC(=N)N)C(=O)N[C@@H](CO)C(=O)N[C@@H](CC(C)(C)C)C(=O)N2CCC[C@H]2C(=O)N2CCC[C@H]2C(=O)N[C@@H]([C@@H](C)CC)C(=O)N1C)C(N)=O) [AIC+SRS-((tBu)A)-PPI-((N-Me)C)+I-NH2] | 100 nM | 1.5 nM |
| KICSRS[tBuAla]PPI[NMeC]IPD-NH2 (disulfide 3-11; N-terminus assumed; SMILES CC[C@H](C)[C@H](NC(=O)[C@@H](N)CCCCN)C(=O)N[C@H]1CSSC[C@@H](C(=O)N[C@H](C(=O)N2CCC[C@H]2C(=O)N[C@@H](CC(=O)O)C(N)=O)[C@@H](C)CC)N(C)C(=O)[C@H]([C@@H](C)CC)NC(=O)[C@@H]2CCCN2C(=O)[C@@H]2CCCN2C(=O)[C@H](CC(C)(C)C)NC(=O)[C@H](CO)NC(=O)[C@H](CCCNC(=N)N)NC(=O)[C@H](CO)NC1=O) [KIC+SRS-((tBu)A)-PPI-((N-Me)C)+IPD-NH2] | 120 nM | 1.65 nM |
| AICSRS[tBuAla]P[Pro(4-spirocPr)]I[Pen]IPD-OH (disulfide 3-11; N-terminus assumed; SMILES CC[C@H](C)[C@H](NC(=O)[C@H](C)N)C(=O)N[C@H]1CSSC(C)(C)[C@@H](C(=O)N[C@H](C(=O)N2CCC[C@H]2C(=O)N[C@@H](CC(=O)O)C(=O)O)[C@@H](C)CC)NC(=O)[C@H]([C@@H](C)CC)NC(=O)[C@@H]2CC3(CC3)CN2C(=O)[C@@H]2CCCN2C(=O)[C@H](CC(C)(C)C)NC(=O)[C@H](CO)NC(=O)[C@H](CCCNC(=N)N)NC(=O)[C@H](CO)NC1=O) [AIC+SRS-((tBu)A)-P-((6S)-5-Azaspiro[2.4]heptane-6-carboxylic acid)-I-(Pen)+IPD-OH] | 17.7 nM | 1.57 nM |
| [Sar]ICSRS[tBuAla]PPI[Pen]IP[(S)‑3‑(2H-tetrazol-5-yl)propanoic acid]-NH2 (disulfide 3-11) [((N-Me)G)-IC+SRS-((tBu)A)-PPI-(Pen)+IP-((S)-3-(2H-tetrazol-5-yl)propanoic acid)-NH2] | 36 nM | 1.8 nM |
| AICSRS[tBuAla]P[Pro(4-spirocPr)]I[NMeC]IPD-NH2 (disulfide 3-11; N-terminus assumed; SMILES CC[C@H](C)[C@H](NC(=O)[C@H](C)N)C(=O)N[C@H]1CSSC[C@@H](C(=O)N[C@H](C(=O)N2CCC[C@H]2C(=O)N[C@@H](CC(=O)O)C(N)=O)[C@@H](C)CC)N(C)C(=O)[C@H]([C@@H](C)CC)NC(=O)[C@@H]2CC3(CC3)CN2C(=O)[C@@H]2CCCN2C(=O)[C@H](CC(C)(C)C)NC(=O)[C@H](CO)NC(=O)[C@H](CCCNC(=N)N)NC(=O)[C@H](CO)NC1=O) [AIC+SRS-((tBu)A)-P-((6S)-5-Azaspiro[2.4]heptane-6-carboxylic acid)-I-((N-Me)C)+IPD-NH2] | 40 nM | 1.8 nM |
| AICSRS[tBuAla]PPI[Pen]IP[dN]-NH2 (disulfide 3-11; N-terminus assumed; SMILES CC[C@H](C)[C@H](NC(=O)[C@H](C)N)C(=O)N[C@H]1CSSC(C)(C)[C@@H](C(=O)N[C@H](C(=O)N2CCC[C@H]2C(=O)N[C@H](CC(N)=O)C(N)=O)[C@@H](C)CC)NC(=O)[C@H]([C@@H](C)CC)NC(=O)[C@@H]2CCCN2C(=O)[C@@H]2CCCN2C(=O)[C@H](CC(C)(C)C)NC(=O)[C@H](CO)NC(=O)[C@H](CCCNC(=N)N)NC(=O)[C@H](CO)NC1=O) [AIC+SRS-((tBu)A)-PPI-(Pen)+IPn-NH2] | 53 nM | 1.4 nM |
| AICSRSLP[Pro(4-spirocPr)]I[Pen]IPD-OH (disulfide 3-11; N-terminus assumed; SMILES CC[C@H](C)[C@H](NC(=O)[C@H](C)N)C(=O)N[C@H]1CSSC(C)(C)[C@@H](C(=O)N[C@H](C(=O)N2CCC[C@H]2C(=O)N[C@@H](CC(=O)O)C(=O)O)[C@@H](C)CC)NC(=O)[C@H]([C@@H](C)CC)NC(=O)[C@@H]2CC3(CC3)CN2C(=O)[C@@H]2CCCN2C(=O)[C@H](CC(C)C)NC(=O)[C@H](CO)NC(=O)[C@H](CCCNC(=N)N)NC(=O)[C@H](CO)NC1=O) [AIC+SRSLP-((6S)-5-Azaspiro[2.4]heptane-6-carboxylic acid)-I-(Pen)+IPD-OH] | 26 nM | 1.65 nM |
| RICSRS[tBuAla]PPI[NMeC]I-NH2 (disulfide 3-11; N-terminus assumed; SMILES CC[C@H](C)[C@H](NC(=O)[C@@H]1CSSC[C@H](NC(=O)[C@@H](NC(=O)[C@@H](N)CCCNC(=N)N)[C@@H](C)CC)C(=O)N[C@@H](CO)C(=O)N[C@@H](CCCNC(=N)N)C(=O)N[C@@H](CO)C(=O)N[C@@H](CC(C)(C)C)C(=O)N2CCC[C@H]2C(=O)N2CCC[C@H]2C(=O)N[C@@H]([C@@H](C)CC)C(=O)N1C)C(N)=O) [RIC+SRS-((tBu)A)-PPI-((N-Me)C)+I-NH2] | 87 nM | 1.7 nM |
| AICSRS[tBuAla]PPI[Pen]IP[dE]-NH2 (disulfide 3-11; N-terminus assumed; SMILES CC[C@H](C)[C@H](NC(=O)[C@H](C)N)C(=O)N[C@H]1CSSC(C)(C)[C@@H](C(=O)N[C@H](C(=O)N2CCC[C@H]2C(=O)N[C@H](CCC(=O)O)C(N)=O)[C@@H](C)CC)NC(=O)[C@H]([C@@H](C)CC)NC(=O)[C@@H]2CCCN2C(=O)[C@@H]2CCCN2C(=O)[C@H](CC(C)(C)C)NC(=O)[C@H](CO)NC(=O)[C@H](CCCNC(=N)N)NC(=O)[C@H](CO)NC1=O) [AIC+SRS-((tBu)A)-PPI-(Pen)+IPe-NH2] | 62 nM | 1.4 nM |
| [NMeA]ICSRS[tBuAla]P[Oic]I[Pen]IP-NH2 (disulfide 3-11; N-terminus assumed; SMILES CC[C@H](C)[C@H](NC(=O)[C@H](C)NC)C(=O)N[C@H]1CSSC(C)(C)[C@@H](C(=O)N[C@H](C(=O)N2CCC[C@H]2C(N)=O)[C@@H](C)CC)NC(=O)[C@H]([C@@H](C)CC)NC(=O)[C@@H]2C[C@@H]3CCCC[C@@H]3N2C(=O)[C@@H]2CCCN2C(=O)[C@H](CC(C)(C)C)NC(=O)[C@H](CO)NC(=O)[C@H](CCCNC(=N)N)NC(=O)[C@H](CO)NC1=O) [((N-Me)A)-IC+SRS-((tBu)A)-P-(Oic)-I-(Pen)+IP-NH2] | 40 nM | 1.4 nM |
| [Nle]ICSRS[tBuAla]PPI[NMeC]I-NH2 (disulfide 3-11; N-terminus assumed; SMILES CCCC[C@H](N)C(=O)N[C@H](C(=O)N[C@H]1CSSC[C@@H](C(=O)N[C@H](C(N)=O)[C@@H](C)CC)N(C)C(=O)[C@H]([C@@H](C)CC)NC(=O)[C@@H]2CCCN2C(=O)[C@@H]2CCCN2C(=O)[C@H](CC(C)(C)C)NC(=O)[C@H](CO)NC(=O)[C@H](CCCNC(=N)N)NC(=O)[C@H](CO)NC1=O)[C@@H](C)CC) [(Nle)-IC+SRS-((tBu)A)-PPI-((N-Me)C)+I-NH2] | 56 nM | 1.5 nM |
